Source: US20260242478A1 (published 2026)
Where no end group is shown, it is not given here.

Assays:
[1] = molecular target: T1, Anti-PSMA Fab; test: clonal phage ELISA; biotinylated anti-PSMA Fab on neutravidin plate; anti-M13 HRP detection; competitor: PSMA antigen pre-added
T1 construct: Biotinylated and captured on neutravidin plates in the phage ELISA; also called 006 PSMA Fab
Protocol: (§1) Clonal phage were harvested as crude supernatants and screened via standard ELISAs. […] Prior to the addition of clonal phage. wells were incubated with blocking buffer and PSMA antigen or blocking buffer alone. Without washing or aspirating, clonal phage supernatants were then added to the wells and incubated for a short time. Wells were then washed followed by detection of bound phage using a horse radish conjugated anti-M13 antibody.

[2] = molecular target: T1, Anti-PSMA Fab; test: clonal phage ELISA; biotinylated anti-PSMA Fab on neutravidin plate; anti-M13 HRP detection; no PSMA added
Protocol: as §1

[3] = molecular target: T2, PSMA Fab; test: clonal phage ELISA; biotinylated PSMA Fab on neutravidin plate, wells first incubated with PSMA antigen as competitor; anti-M13 HRP detection
T2 construct: also called Anti-PSMA Fab; 006 PSMA Fab
Protocol: as §1

[4] = molecular target: T2, PSMA Fab; test: clonal phage ELISA; biotinylated PSMA Fab on neutravidin plate, blocking buffer alone; anti-M13 HRP detection;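 also: crude clonal phage supernatants added without washing to wells pretreated with blocking buffer with or without PSMA antigen, short incubation, then washed before detecting bound phage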
Protocol: as §1

[5] = molecular target: T3, PSMA Fab; test: phage ELISA, clonal phage on biotinylated PSMA Fab captured on neutravidin plate, anti-M13 HRP detection;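 also: crude clonal phage supernatants added to wells preincubated with PSMA antigen in blocking buffer or with blocking buffer only, giving a competition and a no-competitor control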
T3 construct: In the phage ELISA the PSMA Fab was biotinylated and captured on neutravidin coated plates; also called anti-PSMA Fab; 006 PSMA Fab
Protocol: as §1

[6] = molecular target: T3, PSMA Fab; test: phage ELISA, clonal phage on captured PSMA Fab pre-incubated with PSMA antigen as competitor, anti-M13 HRP detection
Protocol: as §1

[7] = molecular target: T4, PSMA Fab (006 PSMA Fab); test: phage ELISA; biotinylated PSMA Fab on neutravidin plate, clonal phage supernatant, anti-M13 HRP detection;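 also: wells preincubated with PSMA antigen in blocking buffer or with blocking buffer only before clonal phage were added for a short incubation, then bound phage detected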
T4 construct: also called Anti-PSMA Fab; anti-PSMA Fab
Protocol: as §1

[8] = molecular target: T4, PSMA Fab (006 PSMA Fab); test: phage ELISA; PSMA Fab on plate pre-incubated with PSMA antigen as competitor, anti-M13 HRP detection;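 also: crude clonal phage supernatants added to Fab-coated wells still holding PSMA antigen in blocking buffer, with bound phage as read-out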
Protocol: as §1

| Binder | Phage binding ELISA signal, Anti-PSMA Fab with PSMA antigen [1] | Phage binding ELISA signal, Anti-PSMA Fab [2] | phage binding ELISA signal, Anti-PSMA Fab in the presence of PSMA [3] | Phage binding ELISA signal, Anti-PSMA Fab [4] | Phage binding ELISA signal, Anti-PSMA Fab [5] | Phage binding ELISA signal, Anti-PSMA Fab in presence of PSMA [6] | further results |
| --- | --- | --- | --- | --- | --- | --- | --- |
| DLMMCVPAWMCEGF [Phage-3629] | 0.0929 | 1.55 | – | – | – | – | – |
| LAVKCEPAWMCTGF [Phage-3627] | 0.0802 | 1.55 | – | – | – | – | – |
| IVKFCIPQWMCDGF [Phage-3623] | 0.147 | 1.56 | – | – | – | – | – |
| SVPSCVPPWMCIGF [Phage-3471] | – | – | 0.0613 | 1.73 | – | – | – |
| FRDYCVPPWMCVGM [Phage-3401] | – | – | – | – | 1.8 | 0.0791 | – |
| LEAACRPMWMCLGF (cysteine pairing not given here; also: fused to pIII of bacteriophage) [Phage-3466] | – | – | 0.0664 | 1.73 | – | – | – |
| TNPMCVPEWMCYGF [Phage-3468] | – | – | 0.0628 | 1.73 | – | – | – |
| EGTWCRPAWMCDGF [Phage-3473] | – | – | 0.0819 | 1.73 | – | – | – |
| GFPWCEPQWMCIGF [Phage-3396] | – | – | – | – | 1.8 | 0.114 | – |
| ADHMCVPQWMCSGF [Phage-3619] | 0.103 | 1.57 | – | – | – | – | – |
| IELMCRPLWMCMGF [Phage-3398] | – | – | – | – | 1.8 | 0.0966 | – |
| DDRVCRPDWMCNGF [Phage-3624] | 0.0665 | 1.56 | – | – | – | – | – |
| ASVLCVPAWMCSGF [Phage-3395] | – | – | – | – | 1.8 | 0.0808 | – |
| FERLCIPEWMCSAF [Phage-3400] | – | – | – | – | 1.8 | 0.102 | – |
| GNDYCVPAWMCAGF (tested as crude clonal phage supernatant) [Phage-3900] | – | – | – | – | – | – | Phage binding ELISA signal, Anti-PSMA Fab [7]: 1.06; Phage binding ELISA signal, Anti-PSMA Fab in presence of PSMA antigen [8]: 0.0974 |
| LERACKPMWMCEGF [Phage-3474] | – | – | 0.0863 | 1.73 | – | – | – |
| ETHFCKPKWMCVGF (cysteine pairing not given here; also: fused to pIII of bacteriophage) [Phage-3465] | – | – | 0.0927 | 1.74 | – | – | – |
| TEILCVPEWMCIGL [Phage-3392] | – | – | – | – | 1.8 | 0.0705 | – |
| FERVCVPAWMCAGF (tested as crude clonal phage supernatant) [Phage-3899] | – | – | – | – | – | – | Phage binding ELISA signal, Anti-PSMA Fab [7]: 1.07; Phage binding ELISA signal, Anti-PSMA Fab in presence of PSMA antigen [8]: 0.0668 |
| ITVICKPAWMCEFL [Phage-3394] | – | – | – | – | 1.8 | 0.0613 | – |
| WEARCQPTWMCTGF (cysteine pairing not given here; also: fused to pIII of bacteriophage) [Phage-3467] | – | – | 0.0667 | 1.73 | – | – | – |

| Binder | Phage binding ELISA signal, Anti-PSMA Fab with PSMA antigen [1] | Phage binding ELISA signal, Anti-PSMA Fab [2] | phage binding ELISA signal, Anti-PSMA Fab in the presence of PSMA [3] | Phage binding ELISA signal, Anti-PSMA Fab [4] | Phage binding ELISA signal, Anti-PSMA Fab [5] | Phage binding ELISA signal, Anti-PSMA Fab in presence of PSMA [6] | further results |
| --- | --- | --- | --- | --- | --- | --- | --- |
| QFLVCKPSWMCNGF [Phage-3402] | – | – | – | – | 1.8 | 0.0882 | – |
| DERMCVPEWMCMGM [Phage-3620] | 0.0714 | 1.57 | – | – | – | – | – |
| VDQVCIPDWMCNGF [Phage-3470] | – | – | 0.0771 | 1.73 | – | – | – |
| HDYACVPKWMCEGL [Phage-3621] | 0.0818 | 1.57 | – | – | – | – | – |
| EVLLCKPEWMCTGF (cysteine pairing not given here; also: fused to pIII of bacteriophage) [Phage-3463] | – | – | 0.0669 | 1.74 | – | – | – |
| EDRICEPDWMCAGF [Phage-3475] | – | – | 0.105 | 1.73 | – | – | – |
| AALRCVPTWMCEGF [Phage-3404] | – | – | – | – | 1.79 | 0.0793 | – |
| YMMKCIPEWMCTGL [Phage-3622] | 0.0662 | 1.56 | – | – | – | – | – |
| FGIYCVPEWMCTGL [Phage-3397] | – | – | – | – | 1.8 | 0.0891 | – |
| QEVWCRPIWMCEGF [Phage-3472] | – | – | 0.109 | 1.73 | – | – | – |
| TQALCKPAWMCKGF [Phage-3399] | – | – | – | – | 1.8 | 0.0703 | – |
| ELHLCIPSWMCTGL [Phage-3630] | 0.104 | 1.54 | – | – | – | – | – |
| AGYACVPSWMCEGF [Phage-3626] | 0.105 | 1.55 | – | – | – | – | – |
| VHPMCTPLWMCVGF [Phage-3628] | 0.0993 | 1.55 | – | – | – | – | – |
| VVAVCKPLWMCEAF [Phage-3618] | 0.062 | 1.57 | – | – | – | – | – |
| VERYCVPQWMCDGF [Phage-3403] | – | – | – | – | 1.8 | 0.117 | – |
| DWVMCKPEWMCAGF [Phage-3625] | 0.0618 | 1.55 | – | – | – | – | – |
| ESQYCVPRWMCDGF (tested as crude clonal phage supernatant) [Phage-3898] | – | – | – | – | – | – | Phage binding ELISA signal, Anti-PSMA Fab [7]: 1.08; Phage binding ELISA signal, Anti-PSMA Fab in presence of PSMA antigen [8]: 0.0633 |
| EIKHCIPEWMCSGF (cysteine pairing not given here; also: fused to pIII of bacteriophage) [Phage-3464] | – | – | 0.104 | 1.74 | – | – | – |
| EIVKCVPPWMCSGI [Phage-3469] | – | – | 0.0727 | 1.73 | – | – | – |
| ENHYCRPAWMCNGF [Phage-3393] | – | – | – | – | 1.8 | 0.106 | – |
